Experimental data from article doi:10.1101/2020.03.26.009662.

Molecular target: ForT, recombinant wild type
Assay: SEC-MALS

Work on ForT, recombinant wild type (enzyme) yielded a stoichiometry N of 2.
